We go through 20 sequences from the Immune Epitope Database (IEDB).

What is called IC50 is the concentration that gives 50% inhibition.

One assay concerns the target HLA-B*57:01. In words: IEDB peptide-MHC binding, purified MHC/competitive/radioactivity; ≥ and ≤ were set here for values at or beyond the usual limits of such assays. The following applies: source organism: Bordetella pertussis.
On to DASGQHRLW, for which the 50% inhibitory concentration (IC50) is at least 70.4 µM.
In the case of KGPKLAMPW, the IC50 worked out at 4.87 µM.
The same measure, in the same setting: to RGWSIFALY belongs 1.05 µM; to VSVKVAKKL, 37.4 µM.

For the next assay, the target named is HLA-A*02:01. The description is as above. The following applies: source organism: Bordetella pertussis.
With TLNASNLTL, the IC50 worked out at 4.46 µM.
Consider VIDGQKVLA, for which the IC50 was 35.2 µM.

In another assay the target is HLA-B*07:02. Described as above. To be noted: source organism: Bordetella pertussis.
Regarding GAPAAVSVL, the IC50 was found to be 69.6 µM.
As for HVRGMLVPV, the IC50 is 6.16 µM.

A further assay deals with HLA-B*53:01. Described as above. To be noted: source organism: Bordetella pertussis.
With DASGQHRLW, the IC50 turned out to be 25.6 µM.
Regarding KPLADIAVI, the IC50 is 15.7 µM.
For PAPTAPPMP, the IC50 was 53.4 µM.
The same measure, in the same setting: the result for YPALRAALI reads 9.5 µM.

Another assay deals with HLA-B*44:03. The description is as above. To be noted: source organism: Bordetella pertussis.
AEATQLVTA: the IC50 was found to be 2.18 µM.
On to AESSEAMAA, for which the IC50 is 7.54 µM.
Take FELGADHAV: the IC50 was at least 78.2 µM.
For IETGGARRF, the IC50 was 22.1 µM.
For the sequence VEVSSPPPV, the IC50 stood at 28.8 µM.

The next assay deals with HLA-B*35:01. The assay is described as above. The following applies: source organism: Bordetella pertussis.
As to AAESTFESY, the IC50 stood at 44.6 µM.
Consider HAEHEKDVR, for which the IC50 turned out to be 69.9 µM.
As for KAAKSVNLM, the IC50 turned out to be 50.6 µM.
In the case of LPTHLYKNF, the IC50 came out at 10.5 µM.
